Measurements reported in patent publication US20180118799A1 (NATIONAL INSTITUTE OF ADVANCED INDUSTRIAL SCIENCE AND …, published 2018).

T1: Fc-fusion G-CSF receptor
T1 construct: also called granulocyte colony-stimulating factor receptor
T1 sequence (Q99062 whole entry, species assumed, looked up): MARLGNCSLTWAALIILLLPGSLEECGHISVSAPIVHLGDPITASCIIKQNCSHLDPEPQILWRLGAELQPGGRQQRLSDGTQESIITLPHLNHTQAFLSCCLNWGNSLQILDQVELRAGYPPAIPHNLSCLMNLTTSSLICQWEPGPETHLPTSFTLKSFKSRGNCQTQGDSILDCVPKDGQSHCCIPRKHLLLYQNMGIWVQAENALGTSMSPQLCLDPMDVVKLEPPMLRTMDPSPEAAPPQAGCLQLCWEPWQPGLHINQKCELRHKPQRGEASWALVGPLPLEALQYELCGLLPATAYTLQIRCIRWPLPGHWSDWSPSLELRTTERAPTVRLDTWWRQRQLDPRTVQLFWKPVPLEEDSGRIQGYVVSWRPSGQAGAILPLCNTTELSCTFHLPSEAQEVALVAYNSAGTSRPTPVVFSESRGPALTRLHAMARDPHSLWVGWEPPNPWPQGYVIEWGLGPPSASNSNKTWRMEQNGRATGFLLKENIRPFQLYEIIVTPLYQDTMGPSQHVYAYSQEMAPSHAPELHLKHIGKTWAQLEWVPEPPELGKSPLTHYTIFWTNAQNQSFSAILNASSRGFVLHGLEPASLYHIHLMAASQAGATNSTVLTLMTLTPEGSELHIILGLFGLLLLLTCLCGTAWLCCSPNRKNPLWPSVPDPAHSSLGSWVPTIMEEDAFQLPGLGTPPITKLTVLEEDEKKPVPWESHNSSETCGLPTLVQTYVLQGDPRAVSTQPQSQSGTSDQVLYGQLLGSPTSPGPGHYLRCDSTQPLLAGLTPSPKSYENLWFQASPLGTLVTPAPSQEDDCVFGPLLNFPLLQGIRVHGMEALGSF


Columns and labels:
Fc-fusion G-CSF receptor [1] = biological target: T1, Fc-fusion G-CSF receptor; assay: SPR, Biacore T200, Fc-fusion G-CSF receptor captured on immobilized Protein A, single kinetic mode, 25 C (Example 19)
Experimental: (§1) First, commercially available Protein A (Nacalai Tesque, Inc.) was immobilized on a flow cell of a sensor chip CM5 (GE Health care) by using an amine coupling reaction. Next, a running buffer HBS-P (10 mM HEPES pH 7.4, 150 mM NaCl, and 0.05% v/v Surfactant P20) in which an Fc-fusion G-CSF receptor had been dissolved was added to immobilize the receptor on the chip. The SPR measurement was carried out using Biacore T200 (Biacore) and the reaction temperature was 25° C. A 2-fold dilution series from 1.25 nM to 20 nM of the sample solution was prepared, and a single kinetic mode was used for measurement and analysis. When compared with Example 8, this Example had improvements such as use of Biacore T200, which has higher sensitivity than Biacore T100, and use of commercially available Protein A. The improvements helped increase the sensitivity and reproducibility of measurement. Then, the linear G-CSF, G-CSF(C177), and G-CSF(C163) as measured in Example 8 were remeasured and the resulting analysis values were used for comparison.
(§2) The observation results were analyzed using BIAevaluation version 4.1 to calculate a dissociation constant.

Fc-fusion G-CSF receptor [2] = biological target: T1, Fc-fusion G-CSF receptor; assay: SPR, Biacore T100, Fc-fusion G-CSF receptor captured on immobilized Protein G, single kinetic mode, 25 C (Example 8)
Experimental: First, Protein G was immobilized on a flow cell of a sensor chip CMS (GE Health care) by using a maleimide coupling reaction. Next, a running buffer HBS-P (10 mM HEPES pH 7.4, 150 mM NaCl, and 0.05% v/v Surfactant P20) in which an Fc-fusion G-CSF receptor had been dissolved was added to immobilize the receptor on the chip. The SPR measurement was carried out using Biacore T100 (Biacore) and the reaction temperature was 25° C. A 2-fold dilution series from 1.25 nM to 20 nM of the sample solution was prepared, and a single kinetic mode was used for measurement and analysis.
as §2

Fc-fusion G-CSF receptor [3] = biological target: T1, Fc-fusion G-CSF receptor; assay: SPR, Biacore T200, Fc-fusion G-CSF receptor captured on immobilized Protein A, single kinetic mode, 25 C (Example 19, remeasured)
Experimental: as §1

Row | Binder | Kd (Fc-fusion G-CSF receptor [1]) [nM] | Kd (Fc-fusion G-CSF receptor [2]) [nM] | Kd (Fc-fusion G-CSF receptor [3]) [nM]
1 | G-CSF(C166) (ligand, backbone cyclized: amino group of serine at the N-terminus and carbonyl group of glycine at the C-terminus linked by a peptide bond, also called cyclized G-CSF(C166)) SSLPQSFLLKSLEQVRKIQGDGAALQEKLCATYKLCHPEELVLLGHSLGIPWAPLSSCPSQALQLAGCLSQLHSGLFLYQGLLQALEGISPELGPTLDTLQLDVADFATTIWQQMEELGMAPALQPTQGAMPAFASAFQRRAGGVLVASHLQSFLEVSYRVLRHLG | 0.06 |  | 
2 | linear control G-CSF (ligand, Linear polypeptide of 175 amino acids; also called linear G-CSF) MAPLGPASSLPQSFLLKSLEQVRKIQGDGAALQEKLCATYKLCHPEELVLLGHSLGIPWAPLSSCPSQALQLAGCLSQLHSGLFLYQGLLQALEGISPELGPTLDTLQLDVADFATTIWQQMEELGMAPALQPTQGAMPAFASAFQRRAGGVLVASHLQSFLEVSYRVLRHLAQP |  | 0.43 | 0.08
3 | filgrastim (ligand, Its source in the assay is not described) MTPLGPASSLPQSFLLKCLEQVRKIQGDGAALQEKLCATYKLCHPEELVLLGHSLGIPWAPLSSCPSQALQLAGCLSQLHSGLFLYQGLLQALEGISPELGPTLDTLQLDVADFATTIWQQMEELGMAPALQPTQGAMPAFASAFQRRAGGVLVASHLQSFLEVSYRVLRHLAQP | 0.27 |  | 
4 | G-CSF(C177) (ligand, backbone cyclized: amino group of serine at the N-terminus and carbonyl group of glycine at the C-terminus linked by a peptide bond, Cyclized with split inteins; also called cyclized G-CSF(C177)) SMAPLGPASSLPQSFLLKSLEQVRKIQGDGAALQEKLCATYKLCHPEELVLLGHSLGIPWAPLSSCPSQALQLAGCLSQLHSGLFLYQGLLQALEGISPELGPTLDTLQLDVADFATTIWQQMEELGMAPALQPTQGAMPAFASAFQRRAGGVLVASHLQSFLEVSYRVLRHLAQPG |  | 0.57 | 0.06

Second part, the binder after the results:

Row | Kd (Fc-fusion G-CSF receptor [1]) [nM] | Kd (Fc-fusion G-CSF receptor [2]) [nM] | Kd (Fc-fusion G-CSF receptor [3]) [nM] | Binder
5 |  | 0.57 | 0.1 | G-CSF(C163) (ligand, backbone cyclized: amino group of serine at the N-terminus and carbonyl group of glycine at the C-terminus linked by a peptide bond, also called cyclized G-CSF(C163)) SQSFLLKSLEQVRKIQGDGAALQEKLCATYKLCHPEELVLLGHSLGIPWAPLSSCPSQALQLAGCLSQLHSGLFLYQGLLQALEGISPELGPTLDTLQLDVADFATTIWQQMEELGMAPALQPTQGAMPAFASAFQRRAGGVLVASHLQSFLEVSYRVLRHLG
6 | 0.05 |  |  | G-CSF(C170) (ligand, backbone cyclized: amino group of serine at the N-terminus and carbonyl group of glycine at the C-terminus linked by a peptide bond, 170 amino acids; also called cyclized G-CSF(C170)) SGPASSLPQSFLLKSLEQVRKIQGDGAALQEKLCATYKLCHPEELVLLGHSLGIPWAPLSSCPSQALQLAGCLSQLHSGLFLYQGLLQALEGISPELGPTLDTLQLDVADFATTIWQQMEELGMAPALQPTQGAMPAFASAFQRRAGGVLVASHLQSFLEVSYRVLRHLG
